Patent publication EP2009022A1

Tests used:
TRAILR1 (human) = TRAILR1 (human) (UniProt O00220); assay: cell-based or functional assay
Fc-CD95 (human) = Fc-CD95 (human) (UniProt P25445); assay: SPR (BIAcore 2000), biotinylated Fc-CD95 on streptavidin chip, ligand in solution, 1:1 model
human CD95 (human) [1] = target: human CD95 (human) (UniProt P25445); assay: cell-based or functional assay
human CD95 (human) [2] = target: human CD95 (human) (UniProt P25445); assay: FACS on KB cells, anti-Flag mAb M2 and PE anti-mouse IgG
murine CD95 (murine) = murine CD95 (murine) (UniProt P25446); assay: FACS on MBL2-CD95 cells, anti-Flag mAb M2 and PE anti-mouse IgG
UniProt P25446, sequence (P25446 22-327): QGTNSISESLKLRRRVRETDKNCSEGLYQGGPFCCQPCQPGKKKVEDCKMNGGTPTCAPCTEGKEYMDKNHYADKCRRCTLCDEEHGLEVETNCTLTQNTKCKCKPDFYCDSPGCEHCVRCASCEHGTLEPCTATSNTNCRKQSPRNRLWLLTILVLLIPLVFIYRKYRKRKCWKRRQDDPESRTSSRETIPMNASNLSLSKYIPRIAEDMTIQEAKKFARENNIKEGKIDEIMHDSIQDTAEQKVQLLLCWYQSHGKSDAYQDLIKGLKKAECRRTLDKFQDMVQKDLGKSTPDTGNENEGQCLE

UniProt O00220, sequence (O00220 24-468): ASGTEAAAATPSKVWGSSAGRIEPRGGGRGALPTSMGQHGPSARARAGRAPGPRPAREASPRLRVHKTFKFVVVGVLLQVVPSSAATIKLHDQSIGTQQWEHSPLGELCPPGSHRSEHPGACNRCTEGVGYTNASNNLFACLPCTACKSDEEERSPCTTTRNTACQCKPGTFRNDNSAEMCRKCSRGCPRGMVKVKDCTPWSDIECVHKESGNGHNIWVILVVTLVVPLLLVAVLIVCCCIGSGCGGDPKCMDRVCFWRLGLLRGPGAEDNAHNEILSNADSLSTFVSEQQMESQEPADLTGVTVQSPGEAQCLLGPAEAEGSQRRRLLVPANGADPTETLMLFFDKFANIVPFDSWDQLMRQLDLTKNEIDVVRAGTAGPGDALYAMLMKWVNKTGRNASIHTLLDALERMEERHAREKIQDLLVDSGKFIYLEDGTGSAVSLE

Row | Substance | cell death of CHX-sensitized KB cells, no crosslinking (crystal violet) (TRAILR1 (human)) | Kd (Fc-CD95 (human)) | protection of KB cells from Fc-hCD95L-induced cell death (competition assay) (human CD95 (human) [1]) | lowest concentration with significant binding (human CD95 (human) [2]) | lowest concentration with significant binding (murine CD95 (murine))
1 | Flag-hTRAIL(95-281) (ligand) | 10 ng/mL | – | – | – | –
2 | Flag-TNC-mCD95L(137-279) (from UniProt P10039 110-139) (ligand) | – | 0.026 µM | – | – | –
3 | mCD95L(137-279) (ligand) | – | – | > 1 µg/mL | – | –
4 | Flag-hCD95L(137-281) (ligand) | – | 0.039 µM | 0.05 µg/mL | 0.3 µg/mL | 0.1 µg/mL
